Results published in article PMC4871238 (Nature structural & molecular biology, 2015).

T1: human SBDS (Shwachman-Bodian-Diamond syndrome protein) (human, UniProt Q9Y3A5 1-250)
T1 sequence: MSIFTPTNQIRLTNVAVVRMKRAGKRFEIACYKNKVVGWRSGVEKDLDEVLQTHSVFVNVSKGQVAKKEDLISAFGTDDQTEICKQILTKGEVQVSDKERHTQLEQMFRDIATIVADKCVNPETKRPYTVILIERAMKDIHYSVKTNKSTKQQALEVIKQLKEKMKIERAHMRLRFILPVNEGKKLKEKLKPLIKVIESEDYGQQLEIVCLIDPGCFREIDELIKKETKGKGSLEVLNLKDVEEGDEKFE

B1: Dictyostelium discoideum eIF6 (eukaryotic initiation factor 6), endogenous (natural protein)
chain: not shown
B2: Dictyostelium discoideum ribosomal protein uL16 (L10) (natural protein, UniProt Q54J69 1-217, looked up)
chain: MGRRPARCYRYCKNKPYIKSRYCRGVPDAKIRIFDLGRKKASTDEFPLCVHLISLEKEQLSSEAIEAGRISCNKYISKTGGKDSFHMRVRVHPWHVLRINKMLSCAGADRLQTGMRGAFGKPMGTVARVNIGQIIFSIRTRDNMLANVVEALRRSSYKFPGRQKIVVSKKWGFTAYNREAYQKLKADGRLMNDGANVKVITNHGTLAQYAKDIAAAN
B3: Dictyostelium discoideum ribosomal protein uL11 (L12) (natural protein)
chain: not shown
B4: Dictyostelium discoideum ribosomal protein eL24 (L24) (natural protein, UniProt Q54VN6 1-127, looked up)
chain: MKTSLCNYSEFKIYPARGMKFVRGDSKVFHFINTKVESLFFRKINPRDIRWSMVYRRIYKNTTTDVSAKKKARKTKKVERNIVGASLEVIQQKRAQKPEVKQAAAEQAKREIKEKKKAAAKKAAPKK
B5: Dictyostelium discoideum ribosomal protein uL14 (L23) (natural protein)
chain: not shown

Experiments:
Experiment in all cases: cryo-EM structure
[1] = biological target: Dictyostelium discoideum ribosomal protein uL3 (L3) (Dictyostelium discoideum, UniProt P34113 1-398)
Dictyostelium discoideum ribosomal protein uL3 (L3), sequence (P34113 whole entry): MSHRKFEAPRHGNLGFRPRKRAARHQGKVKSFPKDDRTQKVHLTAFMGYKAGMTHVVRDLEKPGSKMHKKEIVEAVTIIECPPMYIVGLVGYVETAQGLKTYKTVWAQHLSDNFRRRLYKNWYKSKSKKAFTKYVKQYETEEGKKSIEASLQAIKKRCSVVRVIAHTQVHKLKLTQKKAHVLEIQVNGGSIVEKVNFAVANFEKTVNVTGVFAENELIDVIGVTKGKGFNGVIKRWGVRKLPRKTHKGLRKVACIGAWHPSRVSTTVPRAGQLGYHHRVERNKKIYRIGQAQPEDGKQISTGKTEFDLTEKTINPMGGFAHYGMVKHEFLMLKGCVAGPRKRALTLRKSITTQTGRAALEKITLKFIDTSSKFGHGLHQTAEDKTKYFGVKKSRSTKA

[2] = biological target: T1, human SBDS (Shwachman-Bodian-Diamond …)
[3] = biological target: B1

Row | binding result [2] | binding result [3] | Binder | also measured
1 | – | – | B1 | binding result [1]: binds
2 | binds | – | B2 | –
3 | binds | – | B3 | –
4 | – | binds | B4 | –
5 | – | binds | B5 | –
